Where “and” joins values, the source holds several entries; their conditions need not be identical. Equal values may be shown once.
Key:
TRF1 (human) [1] = biological target: TRF1 (human) (UniProt P54274); experiment: mass photometry
POT1 (human) = POT1 (human) (UniProt Q9NUX5); experiment: native MS
[2] = biological target: TRF2/Rap1 complex (human) (UniProt Q9NYB0); experiment: co-sedimentation + other: mass photometry
TPP1 (human) = experiment: native MS
TRF1 (human) [3] = biological target: TRF1 (human) (UniProt P54274); experiment: native MS
Target sequence in this assay (P54274 whole entry): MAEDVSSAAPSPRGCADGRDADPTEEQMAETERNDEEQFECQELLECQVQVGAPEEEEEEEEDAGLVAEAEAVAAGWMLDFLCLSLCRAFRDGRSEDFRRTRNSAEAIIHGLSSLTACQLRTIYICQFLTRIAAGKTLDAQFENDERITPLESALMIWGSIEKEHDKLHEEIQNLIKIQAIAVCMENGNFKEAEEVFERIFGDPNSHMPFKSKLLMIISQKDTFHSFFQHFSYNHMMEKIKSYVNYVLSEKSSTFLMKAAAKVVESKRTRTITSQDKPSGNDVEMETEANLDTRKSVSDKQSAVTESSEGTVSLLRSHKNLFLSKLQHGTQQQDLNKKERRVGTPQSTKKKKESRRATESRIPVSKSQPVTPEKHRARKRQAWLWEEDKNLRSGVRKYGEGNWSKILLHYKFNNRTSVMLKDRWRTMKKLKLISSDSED

[4] = biological target: TRF2/His6MBP-Rap1 complex (human) (UniProt Q9NYB0); experiment: pull-down + other: mass photometry
POT1;TPP1;GFP-TIN2 = POT1;TPP1;GFP-TIN2 (human;human;human, UniProt Q9NUX5;Q96AP0;Q9BSI4-2 1-634;1-458;1-352, ||); experiment: negative-stain EM
POT1;TPP1N [5] = biological target: T1, POT1;TPP1N (human;human, UniProt Q9NUX5;Q96AP0 1-634;1-251, |); experiment: negative-stain EM
POT1;TPP1N [6] = biological target: T1, POT1;TPP1N; experiment: size-exclusion chromatography and negative-stain EM

TRF2/Rap1 complex (human), sequence (Q9NYB0 whole entry, looked up, one chain of several): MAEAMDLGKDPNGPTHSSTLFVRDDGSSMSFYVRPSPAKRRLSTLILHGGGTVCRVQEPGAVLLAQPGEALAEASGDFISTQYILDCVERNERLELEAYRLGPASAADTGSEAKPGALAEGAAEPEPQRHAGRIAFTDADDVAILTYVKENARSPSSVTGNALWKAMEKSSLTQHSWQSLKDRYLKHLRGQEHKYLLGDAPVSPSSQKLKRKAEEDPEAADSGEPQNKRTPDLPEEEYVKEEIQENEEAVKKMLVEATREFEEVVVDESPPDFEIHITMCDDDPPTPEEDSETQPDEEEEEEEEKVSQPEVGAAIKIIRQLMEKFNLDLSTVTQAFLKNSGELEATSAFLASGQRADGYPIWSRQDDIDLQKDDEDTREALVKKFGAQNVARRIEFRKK
T1 sequence (Q9NUX5 whole entry, chain 1 of 2): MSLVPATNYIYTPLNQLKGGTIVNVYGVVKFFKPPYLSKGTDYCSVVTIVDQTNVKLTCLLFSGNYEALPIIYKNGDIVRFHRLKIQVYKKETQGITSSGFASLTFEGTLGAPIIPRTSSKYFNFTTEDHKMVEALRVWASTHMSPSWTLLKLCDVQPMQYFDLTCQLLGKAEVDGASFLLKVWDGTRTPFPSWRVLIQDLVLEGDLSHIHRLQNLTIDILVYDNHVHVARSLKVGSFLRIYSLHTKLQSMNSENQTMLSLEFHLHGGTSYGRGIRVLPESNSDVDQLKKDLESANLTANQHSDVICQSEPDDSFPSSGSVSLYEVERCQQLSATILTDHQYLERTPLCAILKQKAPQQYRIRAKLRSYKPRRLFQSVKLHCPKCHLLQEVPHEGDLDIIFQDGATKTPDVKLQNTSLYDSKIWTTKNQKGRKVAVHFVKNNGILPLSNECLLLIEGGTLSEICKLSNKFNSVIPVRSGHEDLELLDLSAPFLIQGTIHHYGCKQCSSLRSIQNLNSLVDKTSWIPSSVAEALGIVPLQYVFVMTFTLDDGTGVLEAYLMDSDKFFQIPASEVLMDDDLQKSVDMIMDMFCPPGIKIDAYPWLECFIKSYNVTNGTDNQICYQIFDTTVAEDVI
T1 sequence (Q96AP0 1-251, chain 2 of 2): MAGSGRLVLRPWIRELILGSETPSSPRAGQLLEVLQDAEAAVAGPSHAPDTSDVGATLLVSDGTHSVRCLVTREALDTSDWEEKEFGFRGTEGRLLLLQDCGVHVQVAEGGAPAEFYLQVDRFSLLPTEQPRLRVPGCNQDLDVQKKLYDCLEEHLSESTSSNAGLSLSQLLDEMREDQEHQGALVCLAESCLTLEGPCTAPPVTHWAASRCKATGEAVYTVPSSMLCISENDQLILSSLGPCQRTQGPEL
TRF2/His6MBP-Rap1 complex (human), sequence (Q9NYB0 whole entry, looked up, one chain of several): as the sequence (Q9NYB0 whole entry, looked up, one chain of several) above
TPP1 (human), sequence (Q96AP0 whole entry): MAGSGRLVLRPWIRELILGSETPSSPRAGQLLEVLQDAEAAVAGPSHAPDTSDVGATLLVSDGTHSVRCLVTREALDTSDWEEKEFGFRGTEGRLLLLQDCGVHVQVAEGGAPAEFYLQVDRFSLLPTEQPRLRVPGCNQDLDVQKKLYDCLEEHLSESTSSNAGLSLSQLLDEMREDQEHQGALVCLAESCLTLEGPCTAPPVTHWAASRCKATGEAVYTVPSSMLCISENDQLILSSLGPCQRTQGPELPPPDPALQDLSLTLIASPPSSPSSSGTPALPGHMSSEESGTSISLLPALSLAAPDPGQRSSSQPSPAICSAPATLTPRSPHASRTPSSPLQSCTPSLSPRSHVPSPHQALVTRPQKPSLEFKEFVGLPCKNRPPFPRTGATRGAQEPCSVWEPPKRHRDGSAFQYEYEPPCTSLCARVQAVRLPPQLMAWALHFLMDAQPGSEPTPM
POT1 (human), sequence (Q9NUX5 whole entry): as the sequence (Q9NUX5 whole entry, chain 1 of 2) above
POT1;TPP1;GFP-TIN2, sequence (Q9NUX5 whole entry, chain 1 of 3): as the sequence (Q9NUX5 whole entry, chain 1 of 2) above
POT1;TPP1;GFP-TIN2, sequence (Q96AP0 whole entry, chain 2 of 3): as the sequence (Q96AP0 whole entry) above
POT1;TPP1;GFP-TIN2, sequence (Q9BSI4 1-352, chain 3 of 3): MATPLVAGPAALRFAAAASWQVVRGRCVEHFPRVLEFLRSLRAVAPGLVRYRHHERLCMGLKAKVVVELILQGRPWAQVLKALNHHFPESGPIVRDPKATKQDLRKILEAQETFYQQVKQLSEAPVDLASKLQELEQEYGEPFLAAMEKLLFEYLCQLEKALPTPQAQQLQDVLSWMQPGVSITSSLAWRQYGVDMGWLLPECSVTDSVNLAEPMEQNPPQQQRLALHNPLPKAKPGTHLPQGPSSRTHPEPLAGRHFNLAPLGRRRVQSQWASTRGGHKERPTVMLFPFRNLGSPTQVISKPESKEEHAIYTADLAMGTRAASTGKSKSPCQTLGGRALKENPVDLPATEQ

## TRF1 (from UniProt P54274 1-439) (natural protein)
TRF1 (human) [1]
  stoichiometry N: 2

## TPP1 (natural protein)
POT1 (human)
  stoichiometry N (TPP1 per POT1): 1

## TRF1/GFP-TIN2 complex (from UniProt P54274;Q9BSI4)
[2]
  stoichiometry N ((TRF1/GFP-TIN2)2 per (TRF2/Rap1)2): 1

## GFP-TIN2 (natural protein)
TRF1 (human) [1]
  stoichiometry N (TIN2 per TRF1 dimer): 2
TPP1 (human)
  stoichiometry N (TIN2 per TPP1): 1

## POT1/TPP1/GFP-TIN2 complex (from UniProt Q9NUX5 1-634)
TRF1 (human) [1]
  stoichiometry N (POT1/TPP1/GFP-TIN2 per TRF1 dimer): 1 and 2
TRF1 (human) [3]
  stoichiometry N (POT1/TPP1/GFP-TIN2 per TRF1 dimer): 1 and 2
[2]
  stoichiometry N (POT1/TPP1/TIN2 per (TRF2/Rap1)2): 1 and 2

## POT1/TPP1/GFP-TIN2/TRF1 complex (from UniProt Q9NUX5;P54274)
[4]
  stoichiometry N: 1

B1: 5'-biotin-(GGTTAG)4 (ssDNA)
DNA: GGTTAGGGTTAGGGTTAGGGTTAG
POT1;TPP1;GFP-TIN2
  binding result: binds
POT1;TPP1N [5]
  binding result: binds

B2: 5'-biotin-(GGTTAG)2 (ssDNA)
DNA: GGTTAGGGTTAG
POT1;TPP1N [6]
  binding result: binds
